Data on 20 molecules can be found in patent publication US20220040297A1 (Chugai, published 2022).

B1: GLS3000 R54G (antibody, name in Kabat numbering, V domains shown)
VH: QVQLVESGGGVVQPGRSLRLSCAASGFTFSNAWMHWVRQAPGKGLEWVAQIKAKSNNYATYYAESVKGRFTISRDDSKNSLYLQMNSLKTEDTAVYYCRYVHYGAYYGVDAWGQGTTVTVSS
VL: DIVMTQSPLSLPVTPGEPASISCRSSQSLVHSNRNTYLHWYQQKPGQAPRLLIYKVSNGFSGVPDRFSGSGSGTDFTLKISRVEAEDVGVYYCGQGTQVPYTFGQGTKLEIK
notes: one-arm format as m2
B2: GLS3000 S25V (antibody, name in Kabat numbering, V domains shown)
VH: QVQLVESGGGVVQPGRSLRLSCAASGFTFSNAWMHWVRQAPGKGLEWVAQIKAKSNNYATYYAESVKGRFTISRDDSKNSLYLQMNSLKTEDTAVYYCRYVHYGAYYGVDAWGQGTTVTVSS
VL: DIVMTQSPLSLPVTPGEPASISCRVSQSLVHSNRNTYLHWYQQKPGQAPRLLIYKVSNRFSGVPDRFSGSGSGTDFTLKISRVEAEDVGVYYCGQGTQVPYTFGQGTKLEIK
notes: one-arm format as m2
B3: GLS3000 S25P (antibody, name in Kabat numbering, V domains shown)
VH: QVQLVESGGGVVQPGRSLRLSCAASGFTFSNAWMHWVRQAPGKGLEWVAQIKAKSNNYATYYAESVKGRFTISRDDSKNSLYLQMNSLKTEDTAVYYCRYVHYGAYYGVDAWGQGTTVTVSS
VL: DIVMTQSPLSLPVTPGEPASISCRPSQSLVHSNRNTYLHWYQQKPGQAPRLLIYKVSNRFSGVPDRFSGSGSGTDFTLKISRVEAEDVGVYYCGQGTQVPYTFGQGTKLEIK
notes: one-arm format as m2
B4: GLS3000 S25A (antibody, name in Kabat numbering, V domains shown)
VH: QVQLVESGGGVVQPGRSLRLSCAASGFTFSNAWMHWVRQAPGKGLEWVAQIKAKSNNYATYYAESVKGRFTISRDDSKNSLYLQMNSLKTEDTAVYYCRYVHYGAYYGVDAWGQGTTVTVSS
VL: DIVMTQSPLSLPVTPGEPASISCRASQSLVHSNRNTYLHWYQQKPGQAPRLLIYKVSNRFSGVPDRFSGSGSGTDFTLKISRVEAEDVGVYYCGQGTQVPYTFGQGTKLEIK
notes: one-arm format as m2
B5: GLS3000 R77S (antibody, name in Kabat numbering, V domains shown)
VH: QVQLVESGGGVVQPGRSLRLSCAASGFTFSNAWMHWVRQAPGKGLEWVAQIKAKSNNYATYYAESVKGRFTISRDDSKNSLYLQMNSLKTEDTAVYYCRYVHYGAYYGVDAWGQGTTVTVSS
VL: DIVMTQSPLSLPVTPGEPASISCRSSQSLVHSNRNTYLHWYQQKPGQAPRLLIYKVSNRFSGVPDRFSGSGSGTDFTLKISSVEAEDVGVYYCGQGTQVPYTFGQGTKLEIK
notes: one-arm format as m2
B6: GLS3000 S25E (antibody, name in Kabat numbering, V domains shown)
VH: QVQLVESGGGVVQPGRSLRLSCAASGFTFSNAWMHWVRQAPGKGLEWVAQIKAKSNNYATYYAESVKGRFTISRDDSKNSLYLQMNSLKTEDTAVYYCRYVHYGAYYGVDAWGQGTTVTVSS
VL: DIVMTQSPLSLPVTPGEPASISCRESQSLVHSNRNTYLHWYQQKPGQAPRLLIYKVSNRFSGVPDRFSGSGSGTDFTLKISRVEAEDVGVYYCGQGTQVPYTFGQGTKLEIK
notes: one-arm format as m2
B7: GLS3000 R54S (antibody, name in Kabat numbering, V domains shown)
VH: QVQLVESGGGVVQPGRSLRLSCAASGFTFSNAWMHWVRQAPGKGLEWVAQIKAKSNNYATYYAESVKGRFTISRDDSKNSLYLQMNSLKTEDTAVYYCRYVHYGAYYGVDAWGQGTTVTVSS
VL: DIVMTQSPLSLPVTPGEPASISCRSSQSLVHSNRNTYLHWYQQKPGQAPRLLIYKVSNSFSGVPDRFSGSGSGTDFTLKISRVEAEDVGVYYCGQGTQVPYTFGQGTKLEIK
notes: one-arm format as m2
B8: GLS3000 S25T (antibody, name in Kabat numbering, V domains shown)
VH: QVQLVESGGGVVQPGRSLRLSCAASGFTFSNAWMHWVRQAPGKGLEWVAQIKAKSNNYATYYAESVKGRFTISRDDSKNSLYLQMNSLKTEDTAVYYCRYVHYGAYYGVDAWGQGTTVTVSS
VL: DIVMTQSPLSLPVTPGEPASISCRTSQSLVHSNRNTYLHWYQQKPGQAPRLLIYKVSNRFSGVPDRFSGSGSGTDFTLKISRVEAEDVGVYYCGQGTQVPYTFGQGTKLEIK
notes: one-arm format as m2
B9: GLS3000 S26D (antibody, name in Kabat numbering, V domains shown)
VH: QVQLVESGGGVVQPGRSLRLSCAASGFTFSNAWMHWVRQAPGKGLEWVAQIKAKSNNYATYYAESVKGRFTISRDDSKNSLYLQMNSLKTEDTAVYYCRYVHYGAYYGVDAWGQGTTVTVSS
VL: DIVMTQSPLSLPVTPGEPASISCRSDQSLVHSNRNTYLHWYQQKPGQAPRLLIYKVSNRFSGVPDRFSGSGSGTDFTLKISRVEAEDVGVYYCGQGTQVPYTFGQGTKLEIK
notes: one-arm format as m2
B10: GLS3000 R54P (antibody, name in Kabat numbering, V domains shown)
VH: QVQLVESGGGVVQPGRSLRLSCAASGFTFSNAWMHWVRQAPGKGLEWVAQIKAKSNNYATYYAESVKGRFTISRDDSKNSLYLQMNSLKTEDTAVYYCRYVHYGAYYGVDAWGQGTTVTVSS
VL: DIVMTQSPLSLPVTPGEPASISCRSSQSLVHSNRNTYLHWYQQKPGQAPRLLIYKVSNPFSGVPDRFSGSGSGTDFTLKISRVEAEDVGVYYCGQGTQVPYTFGQGTKLEIK
notes: one-arm format as m2
B11: GLS3000 S25I (antibody, name in Kabat numbering, V domains shown)
VH: QVQLVESGGGVVQPGRSLRLSCAASGFTFSNAWMHWVRQAPGKGLEWVAQIKAKSNNYATYYAESVKGRFTISRDDSKNSLYLQMNSLKTEDTAVYYCRYVHYGAYYGVDAWGQGTTVTVSS
VL: DIVMTQSPLSLPVTPGEPASISCRISQSLVHSNRNTYLHWYQQKPGQAPRLLIYKVSNRFSGVPDRFSGSGSGTDFTLKISRVEAEDVGVYYCGQGTQVPYTFGQGTKLEIK
notes: one-arm format as m2
B12: GLS3000 S25L (antibody, name in Kabat numbering, V domains shown)
VH: QVQLVESGGGVVQPGRSLRLSCAASGFTFSNAWMHWVRQAPGKGLEWVAQIKAKSNNYATYYAESVKGRFTISRDDSKNSLYLQMNSLKTEDTAVYYCRYVHYGAYYGVDAWGQGTTVTVSS
VL: DIVMTQSPLSLPVTPGEPASISCRLSQSLVHSNRNTYLHWYQQKPGQAPRLLIYKVSNRFSGVPDRFSGSGSGTDFTLKISRVEAEDVGVYYCGQGTQVPYTFGQGTKLEIK
notes: one-arm format as m2
B13: GLS3000 R54Q (antibody, name in Kabat numbering, V domains shown)
VH: QVQLVESGGGVVQPGRSLRLSCAASGFTFSNAWMHWVRQAPGKGLEWVAQIKAKSNNYATYYAESVKGRFTISRDDSKNSLYLQMNSLKTEDTAVYYCRYVHYGAYYGVDAWGQGTTVTVSS
VL: DIVMTQSPLSLPVTPGEPASISCRSSQSLVHSNRNTYLHWYQQKPGQAPRLLIYKVSNQFSGVPDRFSGSGSGTDFTLKISRVEAEDVGVYYCGQGTQVPYTFGQGTKLEIK
notes: one-arm format as m2
B14: GLS3000 S25D (antibody, name in Kabat numbering, V domains shown)
VH: QVQLVESGGGVVQPGRSLRLSCAASGFTFSNAWMHWVRQAPGKGLEWVAQIKAKSNNYATYYAESVKGRFTISRDDSKNSLYLQMNSLKTEDTAVYYCRYVHYGAYYGVDAWGQGTTVTVSS
VL: DIVMTQSPLSLPVTPGEPASISCRDSQSLVHSNRNTYLHWYQQKPGQAPRLLIYKVSNRFSGVPDRFSGSGSGTDFTLKISRVEAEDVGVYYCGQGTQVPYTFGQGTKLEIK
notes: one-arm format as m2
B15: GLS3000 S26P (antibody, name in Kabat numbering, V domains shown)
VH: QVQLVESGGGVVQPGRSLRLSCAASGFTFSNAWMHWVRQAPGKGLEWVAQIKAKSNNYATYYAESVKGRFTISRDDSKNSLYLQMNSLKTEDTAVYYCRYVHYGAYYGVDAWGQGTTVTVSS
VL: DIVMTQSPLSLPVTPGEPASISCRSPQSLVHSNRNTYLHWYQQKPGQAPRLLIYKVSNRFSGVPDRFSGSGSGTDFTLKISRVEAEDVGVYYCGQGTQVPYTFGQGTKLEIK
notes: one-arm format as m2
B16: GLS3000 S25M (antibody, name in Kabat numbering, V domains shown)
VH: QVQLVESGGGVVQPGRSLRLSCAASGFTFSNAWMHWVRQAPGKGLEWVAQIKAKSNNYATYYAESVKGRFTISRDDSKNSLYLQMNSLKTEDTAVYYCRYVHYGAYYGVDAWGQGTTVTVSS
VL: DIVMTQSPLSLPVTPGEPASISCRMSQSLVHSNRNTYLHWYQQKPGQAPRLLIYKVSNRFSGVPDRFSGSGSGTDFTLKISRVEAEDVGVYYCGQGTQVPYTFGQGTKLEIK
notes: one-arm format as m2
B17: GLS3000 R54W (antibody, name in Kabat numbering, V domains shown)
VH: QVQLVESGGGVVQPGRSLRLSCAASGFTFSNAWMHWVRQAPGKGLEWVAQIKAKSNNYATYYAESVKGRFTISRDDSKNSLYLQMNSLKTEDTAVYYCRYVHYGAYYGVDAWGQGTTVTVSS
VL: DIVMTQSPLSLPVTPGEPASISCRSSQSLVHSNRNTYLHWYQQKPGQAPRLLIYKVSNWFSGVPDRFSGSGSGTDFTLKISRVEAEDVGVYYCGQGTQVPYTFGQGTKLEIK
notes: one-arm format as m2
B18: GLS3000 S27aD (antibody, name in Kabat numbering, V domains shown)
VH: QVQLVESGGGVVQPGRSLRLSCAASGFTFSNAWMHWVRQAPGKGLEWVAQIKAKSNNYATYYAESVKGRFTISRDDSKNSLYLQMNSLKTEDTAVYYCRYVHYGAYYGVDAWGQGTTVTVSS
VL: DIVMTQSPLSLPVTPGEPASISCRSSQDLVHSNRNTYLHWYQQKPGQAPRLLIYKVSNRFSGVPDRFSGSGSGTDFTLKISRVEAEDVGVYYCGQGTQVPYTFGQGTKLEIK
notes: one-arm format as m2
B19: GLS3000 S26E (antibody, name in Kabat numbering, V domains shown)
VH: QVQLVESGGGVVQPGRSLRLSCAASGFTFSNAWMHWVRQAPGKGLEWVAQIKAKSNNYATYYAESVKGRFTISRDDSKNSLYLQMNSLKTEDTAVYYCRYVHYGAYYGVDAWGQGTTVTVSS
VL: DIVMTQSPLSLPVTPGEPASISCRSEQSLVHSNRNTYLHWYQQKPGQAPRLLIYKVSNRFSGVPDRFSGSGSGTDFTLKISRVEAEDVGVYYCGQGTQVPYTFGQGTKLEIK
notes: one-arm format as m2
B20: GLS3000 R54T (antibody, name in Kabat numbering, V domains shown)
VH: QVQLVESGGGVVQPGRSLRLSCAASGFTFSNAWMHWVRQAPGKGLEWVAQIKAKSNNYATYYAESVKGRFTISRDDSKNSLYLQMNSLKTEDTAVYYCRYVHYGAYYGVDAWGQGTTVTVSS
VL: DIVMTQSPLSLPVTPGEPASISCRSSQSLVHSNRNTYLHWYQQKPGQAPRLLIYKVSNTFSGVPDRFSGSGSGTDFTLKISRVEAEDVGVYYCGQGTQVPYTFGQGTKLEIK
notes: one-arm format as m2

Chain of CD3ε homodimer protein (P07766 23-126 limits assumed): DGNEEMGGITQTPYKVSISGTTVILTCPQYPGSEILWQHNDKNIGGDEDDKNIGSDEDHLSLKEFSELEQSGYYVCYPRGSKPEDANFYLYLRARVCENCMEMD

The assay concerns the target CD3ε homodimer protein (human, UniProt P07766 23-126, limits assumed). Put plainly: SPR, immobilized CD3ε homodimer.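 Further: biacore T200 surface plasmon resonance at 25 °C, antibody variants flowed as analytes over amine-coupled CD3ε homodimer on a CM4 chip, variant binding amount divided by that of GLS3000 antibody.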
As for B1, the “ratio of amounts bound (vs GLS3000)” value stood at 0.67. B2: the “ratio of amounts bound (vs GLS3000)” value came to 0.73. B3: the “ratio of amounts bound (vs GLS3000)” value stood at 1.01. For the molecule B4, the “ratio of amounts bound (vs GLS3000)” value turned out to be 0.92.

For the molecule B5, the “ratio of amounts bound (vs GLS3000)” value was 0.92. As for B6, the “ratio of amounts bound (vs GLS3000)” value was determined as 0.21.

For the molecule B7, the “ratio of amounts bound (vs GLS3000)” value came out at 0.79. As for B8, the figure is 0.83. On to B9, for which the “ratio of amounts bound (vs GLS3000)” value came to 0.86. On to B10, for which the “ratio of amounts bound (vs GLS3000)” value was 0.84. As to B11, the “ratio of amounts bound (vs GLS3000)” value amounted to 0.53. On to B12, for which the “ratio of amounts bound (vs GLS3000)” value worked out at 0.24. On to B13, for which the “ratio of amounts bound (vs GLS3000)” value came to 0.68. Take B14: the “ratio of amounts bound (vs GLS3000)” value stood at 0.48. As for B15, the “ratio of amounts bound (vs GLS3000)” value came to 0.78. Regarding B16, the “ratio of amounts bound (vs GLS3000)” value came out at 0.31. For the molecule B17, the “ratio of amounts bound (vs GLS3000)” value was determined as 0.78.

As for B18, the “ratio of amounts bound (vs GLS3000)” value is 0.79.

Turning to B19, the “ratio of amounts bound (vs GLS3000)” value is 0.74.

B20: the “ratio of amounts bound (vs GLS3000)” value is 0.65.
